In patent publication US20070265198A1 (ROCKEFELLER UNIVERSITY, published 2007):

Key:
[1] = biological target: T1, PlyC-A, the PlyC heavy chain (C1 bacteriophage lysin, ORF 11) (C1 bacteriophage, UniProt Q7Y3F1 2-465); experiment: N-terminal sequencing signals of the native enzyme (55 pm PlyC-B, 12 pm PlyC-A)
T1 construct: 50 kDa subunit of the PlyC lysin; also called heavy subunit (ORF 11); plyCA gene product
T1 sequence: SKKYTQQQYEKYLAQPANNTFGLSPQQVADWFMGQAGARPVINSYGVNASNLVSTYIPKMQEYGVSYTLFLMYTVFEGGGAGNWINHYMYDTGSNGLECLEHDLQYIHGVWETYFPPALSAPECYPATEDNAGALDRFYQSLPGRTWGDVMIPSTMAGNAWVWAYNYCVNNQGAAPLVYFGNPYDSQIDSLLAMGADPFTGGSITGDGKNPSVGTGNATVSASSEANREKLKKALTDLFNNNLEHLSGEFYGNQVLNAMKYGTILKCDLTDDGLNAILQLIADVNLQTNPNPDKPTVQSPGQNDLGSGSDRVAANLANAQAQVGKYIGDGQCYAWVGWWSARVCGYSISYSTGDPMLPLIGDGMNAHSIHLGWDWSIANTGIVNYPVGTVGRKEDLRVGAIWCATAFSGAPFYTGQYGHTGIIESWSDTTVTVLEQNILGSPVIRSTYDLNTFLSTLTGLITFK

[2] = biological target: T1, PlyC-A, the PlyC heavy chain (C1 …); experiment: 35S-methionine labelling of purified PlyC, SDS-PAGE bands counted by scintillation (n=20), cpm per methionine
Protocol: ³⁵S-methionine labeling of PlyC. […] A fresh 20 ml overnight culture of B834/pBAD24::plyC was washed twice with M9 media, and used to inoculate a 2 L flask of M9 minimal media supplemented with 2 mCi ³⁵S-methionine (New England Nuclear). Expression of ³⁵S-Methionine-PlyC was induced with 0.5% arabinose and the enzyme was purified as described above. The heavy and light chains were resolved by SDS-PAGE using 15 μg of labeled PlyC loaded each lane (n=20). Individual bands were cut out of the gel, suspended in 1 ml of SigmaFluor scintillation fluid (Sigma), and counts per minute (cpm) of β-activity was assessed on a Beckman LS5000TD counter.
In order to achieve a mass of 100 kDa, multiple copies of one or both subunits must exist. Thus, PlyC is a multimer. Circumstantial evidence for a molar ratio of 5 light chains to one heavy chain was obtained from N-terminal sequencing of the native enzyme, which yielded a 55 pm signal for PlyC-B and a 12 pm signal for PlyC-A (data not shown). […] Therefore, to further investigate the ratios of PlyC-A and PlyC-B, we cloned plyC into B834 E. coli cells, which are auxotrophic for methionine. […] We were able to enumerate an average signal, measured in counts per minute, for each chain by placing gel-extracted bands (n=20) in scintillation fluid and measuring the β activity (Table IV). […]

[3] = biological target: T2, PlyC-A, the PlyC heavy chain (C1 bacteriophage lysin, ORF 11)
T2 chain: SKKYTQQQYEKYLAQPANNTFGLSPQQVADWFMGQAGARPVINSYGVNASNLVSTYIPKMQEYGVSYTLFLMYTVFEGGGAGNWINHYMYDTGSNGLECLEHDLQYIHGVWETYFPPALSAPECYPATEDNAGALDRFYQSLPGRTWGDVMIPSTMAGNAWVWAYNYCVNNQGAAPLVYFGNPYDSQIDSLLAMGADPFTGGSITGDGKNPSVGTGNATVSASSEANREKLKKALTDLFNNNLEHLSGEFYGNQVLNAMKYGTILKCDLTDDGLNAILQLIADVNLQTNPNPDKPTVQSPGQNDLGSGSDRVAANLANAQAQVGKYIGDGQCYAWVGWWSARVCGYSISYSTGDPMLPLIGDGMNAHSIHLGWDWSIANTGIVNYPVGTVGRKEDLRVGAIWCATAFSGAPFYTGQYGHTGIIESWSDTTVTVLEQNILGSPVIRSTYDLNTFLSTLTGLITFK

B1: PlyC-B, the PlyC light chain (C1 bacteriophage lysin, ORF 9) (enzyme)
chain: SKINVNVENVSGVQGFLFHTDGKESYGYRAFINGVEIGIKDIETVQGFQQIIPSINISKSDVEAIRKAMKK
notes: 8 kDa subunit of the PlyC lysin, a 72 amino acid polypeptide; About six copies per PlyC-A are proposed in the native multimer; also called light subunit (ORF 9); plyCB gene product
B1 was tested, and the “molar ratio of light chains to heavy chain” value [1] was 5 light chains per heavy chain, the “Avg. ratio PlyC-A:PlyC-B” value [2] was 6.17 PlyC-B per PlyC-A and the “PlyC lytic activity of a double transformant (pBAD33::plyCB and pBAD24::plyCA in one host)” value [3] was “Upon induction with 0.5% arabinose, the double transformant contained PlyC activity”. The “activity of the refolded PlyC-B and PlyC-A mixture, normalized to the native PlyC clone (FIG. 3, lane 5)” value [3] was “reconstituted ~25% of the wild-type activity (lane 5)”, the “lytic activity on group A streptococci (chains expressed individually, mixed, incubated 1 hr at room temperature)” value [3] was “When both chains were mixed together and allowed to incubate at room temperature for 1 hr, again no activity was noted” and the “lytic activity on group A streptococci after urea denaturation and refolding of the mixed chains, relative to wild-type PlyC” value [3] was “we were able to reconstitute ~30% of wild-type activity”. The “lytic activity on group A streptococci of a lil- chimera with full-length plyCB and plyCA” value [3] was “a lil- chimera, which contained full-length plyCB and plyCA, possessed wild-type PlyC activity”.
